Experiments:
[1] = test system: adhesion of α9-transformed SW480 cell to nOPN; test: Adhesion of α9-transformed SW480 cell to nOPN; format: cell-based, human; settings: 3 μg/ml nOPN, combination of 200 μM GRGDSP peptide and anti-α9β1 antibody Y9A2, FIG. 2A
Procedure: (§1) It was examined by the following method as to whether or not the murine monoclonal antibodies inhibited cell adhesion to OPN. First, a 96-well plate was precoated with various concentrations of the CHO/OPN-a at 4° C. overnight, which was then treated with 0.5% BSA in PBS under conditions of 37° C. for 10 minutes, so as to block non-specific adhesion. A human fibroblast TIG-7 or SW480 cell transformed with the cDNA of an integrin subunit α9 (referred to as “α9-transformed SW480 cell” hereinafter) was suspended in D-MEM containing 0.25% BSA; 200 μl of the resulting cell suspension (at a cell concentration of 5×10^4 cells/well) was injected in a 96-well plate precoated with the CHO/OPN-a or nOPN, in the presence or absence of various concentrations of the monoclonal antibodies or synthetic peptides, for incubation at 37° C. for one hour.
(§2) The culture medium was discarded from the plate, and all the wells were rinsed twice with D-MEM containing 0.25% BSA. The adherent cells were fixed and stained with 0.5% crystal violet in 20% methanol for 30 minutes.
All the wells were rinsed three times with water, and the adherent cells were then solubilized into 20% acetic acid. The resulting supernatant recovered from each well was analyzed with an immunoreader, to measure the absorbance at 590 nm to determine the relative count of the cells adhering to the well. […]

[2] = test system: adhesion of murine NIH 3T3 cell to mOPN/de-GST; test: Inhibition of NIH 3T3 cell adhesion to murine OPN; format: cell-based, mouse; settings: peptide 100 μg/mL, FIG. 15
Excerpt: It was examined by the method described in the reference (S. Kon et al., (2002): J. Cell. Biochem., 84(2), 420–432) as to whether or not the M5 antibody might inhibit cell adhesion to OPN. As the OPN, the full-length murine OPN was used, from which the GST segment had preliminarily been removed with PreScission protease (Amersham Pharmacia Biotech, Tokyo, Japan) (referred to as “mOPN/de-GST” hereinafter) was used. As the cell, murine NIH 3T3 cell was used.

[3] = test system: adhesion of α9-transformed SW480 cell to vitronectin; test: Adhesion of α9-transformed SW480 cell to vitronectin; format: cell-based, human; settings: 1 μg/ml vitronectin, 200 μM peptide, FIG. 2A
[4] = test system: adhesion of human fibroblast TIG-7 to CHO/OPN-a; test: Inhibition of TIG-7 cell adhesion to OPN; format: cell-based; settings: peptide 100 μg/ml, FIG. 1A
Procedure: as §1, §2
All the wells were rinsed three times with water, and the adherent cells were then solubilized into 20% acetic acid. The resulting supernatant recovered from each well was analyzed with an immunoreader, to measure the absorbance at 590 nm to determine the relative count of the cells adhering to the well. All the assays were done in a triplicate fashion, and at least three independent experiments were performed. The values shown represent mean at three independent experiments.

[5] = test system: mouse collagen arthritis model; test: Mouse collagen arthritis model (arthritogenic antibody cocktail/LPS); format: in vivo; settings: text summary of Tables 6 to 9
Procedure: For arthritis induction, an arthritogenic antibody cocktail (under the trade name of a cocktail for arthritis, Arthrogen-CIA® mAb, Arthritogenic mAb cocktail; manufactured by Iwai Chemical Pharmaceutical Co., Ltd.) recognizing four epitopes specific to collagen was used. To a mouse was intravenously administered the arthritogenic cocktail; 3 days later, LPS (100 μg) was intraperitoneally administered to thereby elicit arthritis. Arthritis was observed on day 3 after LPS dosing, which reached maximum on day 6.
Immediately before LPS dosing and 3 days later, the M5 antibody was intravenously administered at a dose of 40 μg, 150 μg or 400 μg. As the control group, a rabbit IgG-dosed group (at a dose of 400 μg) was arranged. Additionally, the anti-mouse TNF-α antibody was intravenously administered at a dose of 200 μg/mouse immediately before LPS administration and 3 days later. As the control group, a rat IgG-dosed group (at a dose of 200 μg) was arranged. Further, MTX was orally given (at a dose of 3.2 mg/kg) once daily on the very day of LPS dosing and thereafter. Then, MTX dissolved in 5 ml of 0.5% methyl cellulose solution was used. For the control group, 5 ml of 0.5% methyl cellulose solution was arranged.
Concerning four items, namely arthritis score, leg edema, body weight change and feed intake, assessment was done per each group of five animals.

[6] = target: BSA-crosslinked osteopontin peptide (BSA-CVDTYDGRGDSVVYGLRS) (Homo sapiens, UniProt P10451); test: ELISA binding to osteopontin peptide
Excerpt: Based on the concentrations of the humanized 2K1 antibody and the chimera 2K1 antibody as determined in Example 13, the binding activities of the humanized 2K1 antibody and the chimera 2K1 antibody with osteopontin peptide (CVDTYDGRGDSVVYGLRS) (SEQ ID NO: 1) were compared with reference to the ELISA of Kon et al. (Journal of Cellular […]: 420–432 (2002)).
Dilution series of the humanized 2K1 antibody and the chimera 2K1 antibody reacted on a microtiter plate with BSA-crosslinked osteopontin peptide (BSA-CVDTYDGRGDSVVYGLRS)(SEQ ID NO: 1) immobilized thereon. Then, the antibodies bound to BSA-CVDTYDGRGDSVVYGLRS (SEQ ID NO: 1) reacted with protein A-HRP, and finally with TMB (Dojindo Corporate), to measure the absorbance at a wavelength of 450 nm.
Additionally, reaction on a plate with only BSA immobilized thereon as a negative control was also measured in the same manner.
As a negative control, additionally, the binding activity of the chimera 2K1 antibody to BSA (open circle) and the binding activity of the humanized 2K1 antibody to BSA (open square) are also shown.

[7] = test system: human peripheral monocyte migration toward thrombin-cleaved OPN; test: Migration of TNF-α-activated human peripheral monocyte toward thrombin-cleaved OPN (chimera 2K1); format: cell-based; settings: for Mean migrating cell counts per 1 mm^3 (monocyte): thrombin-cleaved OPN 10 μg/mL
Procedure: First, the blood drawn out from a normal subject with heparin was diluted 2-fold with an RPMI 1640 culture medium. The diluted blood was overlaid on the Ficoll-Paque (Pharmacia), which was then centrifuged at 400×g at ambient temperature for 30 minutes. A white layer observed in the interface between the blood plasma and Ficoll-Paque was recovered and used as a monocyte. The monocyte thus obtained was overnight cultured with human TNF-α (20 ng/mL). The resulting activated monocyte was used for a migration experiment.
The migration experiment was done, using a 48-well microchemotaxis chamber (Neuro Probe Inc.). Human OPN reacted with bovine thrombin (Sigma) at 37° C. for 2 hours, for cleavage. After various concentrations of the 2K1 chimera antibody were added to the resulting human […] and left to stand at 37° C. for 15 minutes, the resulting mixture was added to the lower chamber (the final human OPN concentration was 10 μg/mL). Placing a polycarbonate filter (pore size of 5 μm) thereon, 50 μl of a cell suspension (2×10^6 cells/mL) was added to the upper chamber.
After culturing in the presence of 5% CO2 at 37° C. for 2 hours, the polycarbonate filter was removed, while […] with Diff-Quick (Baxter). The cells on the surface of the […] filter were counted at a magnification×40. The results are shown as mean cell count (cells/mm^3)±SD in 6 wells.

[8] = target: partial peptide GRGDSVVYGLR of the human osteopontin (Homo sapiens, UniProt P10451); test: KD assay on BIACORE-2000; format: binding; settings: compared with murine 2K1 antibody
Procedure: The KD value of the chimera 2K1 antibody was assayed in the following manner. First, a partial peptide GRGDSVVYGLR (residues 7–17 of SEQ ID NO: 1) of the human osteopontin was biotinylated with a biotinylation kit (Dojindo Corporate). A sensor chip SA was set on BIACORE-2000, to bind 23 RU of a ligand (Bin-GRGDSVVYGLR)(residues 7–17 of SEQ ID NO: 1). […] The data of these sensor grams were analyzed by global fitting at 1:1 (Langmuir) binding by a BIACORE analysis software BIA Evaluation Version 3.0. FIG. 6a is a sensor gram at various concentrations of the murine 2K1 antibody. FIG. 6b is a sensor gram at various concentrations of the chimera 2K1 antibody.

GRGDSP [reference compound] was tested, and the “inhibition of adhesion of α9-transformed SW480 cell to nOPN” value [1] was “inhibited”, the “inhibition of NIH 3T3 adhesion to mOPN/de-GST” value [2] was “apparently inhibited” and the “inhibition of adhesion between vitronectin and α9-transformed SW480 cell” value [3] was “inhibited”. The “inhibition of TIG-7 adhesion to OPN” value [4] was “apparently inhibited”.

With CN(Cc1cnc2nc(N)nc(N)c2n1)c1ccc(C(=O)N[C@@H](CCC(=O)O)C(=O)O)cc1 [MTX] the “effect on arthritis score, onset of arthritis and leg edema (therapeutic effect)” value [5] was “almost no pharmaceutical efficacy”.

B1: chimera 2K1 antibody: VH and VL of murine 2K1 antibody (SEQ ID NO: 19, 20) conjugated to human Igγ1 and human Igκ (antibody, V domains shown)
VH: QVQLQQSGAELVRPGASVKLSCKALGYTFTDYEMHWVKQTPVHGLEWIGAIHPGRGGTAYNQKFKGKATLTADKSSSTAYMELSSLTSEDSAVYYCTRITGYFDVWGAGTTVTVSS
VL: DVLMTQTPLSLPVSLGDQASISCRSSQSIVHSNGNTYLEWYLQKPGQSPKLLIYKVSNRFSGVPDRFSGSGSGTDFTLKISRVEAEDLGVYYCFQGSHVPLTFGAGTKLELKR
modifications: human IgG1 and kappa constant regions; Mouse
B1 was tested, and the “binding activity to BSA-CVDTYDGRGDSVVYGLRS” value ([6]; ELISA, absorbance 450 nm, FIG. 13) was “had binding activities”, the “binding activity to BSA (negative control plate)” value ([6]; ELISA, plate with only BSA immobilized) was “not to BSA” and the “comparison of binding activities of both antibodies to BSA-CVDTYDGRGDSVVYGLRS” value ([6]; humanized versus chimera 2K1 antibody) was “at the same level”. The “inhibition of migration of TNF-α-activated human peripheral neutrophil and monocyte toward thrombin-cleavage-type OPN” value ([7]; summary of Table 3) was “inhibited”, the “Mean migrating cell counts per 1 mm^3 (monocyte)” value ([7]; antibody 12.5 μ/mL) was 1010.0 ± 59.1 counts per 1 mm^3 and the “Mean migrating cell counts per 1 mm^3 (monocyte)” value ([7]; antibody 25 μ/mL) was 1153.3 ± 96.2 counts per 1 mm^3. The “Mean migrating cell counts per 1 mm^3 (monocyte)” value ([7]; antibody 50 μ/mL) was 895.0 ± 78.0 counts per 1 mm^3, the “Mean migrating cell counts per 1 mm^3 (monocyte)” value ([7]; antibody 100 μ/mL) was 821.7 ± 50.2 counts per 1 mm^3 and the “Mean migrating cell counts per 1 mm^3 (monocyte)” value ([7]; antibody 250 μ/mL) was 865.0 ± 64.9 counts per 1 mm^3. For the same molecule, the “Mean migrating cell counts per 1 mm^3 (monocyte)” value ([7]; antibody 500 μ/mL) was 830.0 ± 44.1 counts per 1 mm^3 and the “reduction of the affinity due to the chimera preparation” value [8] was “No reduction”.
